Experimental data from paper PMC8558838 (The Journal of Experimental Medicine, 2021).

B1: hCD160-6×His tag protein [human] / WT hHVEM (L39-V202) fused with a PD-L1 transmembrane domain and EGFP, on cells [human] (parent complex)
chain 1: GCINITSSASQEGTRLNLICTVWHKKEEAEGFVVFLCKDRSGDCSPETSLKQLRLKRDPGIDGVGEISSQLMFTISQVTPLHSGTYQCCARSQKSGIRLQGHFFSILFTETGNYTVTGLKQRQHLEFSHNEGTLS
chain 2: LPSCKEDEYPVGSECCPKCSPGYRVKEACGELTGTVCEPCPPGTYIAHLNGLSKCLQCQMCDPAMGLRASRNCSRTENAVCGCSPGHFCIVQDGDHCAACRAYATSSPGQRVQKGGTESQDTLCQNCPPGTFSPNGTLEECQHQTKCSWLVTKAGAGTSSSHWV
B2: human LIGHT extracellular domain (L83-V240) [human] / WT hHVEM (L39-V202) fused with a PD-L1 transmembrane domain and EGFP, on cells [human] (parent complex)
chain 1: LIQERRSHEVNPAAHLTGANSSLTGSGGPLLWETQLGLAFLRGLSYHDGALVVTKAGYYYIYSKVQLGGVGCPLGLASTITHGLYKRTPRYPEELELLVSQQSPCGRATSSSRVWWDSSFLGGVVHLEAGEKVVVRVLDERLVRLRDGTRSYFGAFMV
chain 2: B1 chain 2

Variants of: B1
Experiment: flow cytometry on cells stained with soluble protein

ratio to parent	Variant
1.1	chain 2 LPSCKEDEYPVGSECCPKCSPGYRVKEACGELTGTVCEPCPPGTYIAHLNGASKCLQCQMCDPAMGLRASRNCSRTENAVCGCSPGHFCIVQDGDHCAACRAYATSSPGQRVQKGGTESQDTLCQNCPPGTFSPNGTLEECQHQTKCSWLVTKAGAGTSSSHWV [chain 2 L52A]
1.1	chain 2 LPSCKEDEYPVGSECCPKCSPGYRVKEACGELTGTVCEPCPPGTYIAHLNGLSKCAQCQMCDPAMGLRASRNCSRTENAVCGCSPGHFCIVQDGDHCAACRAYATSSPGQRVQKGGTESQDTLCQNCPPGTFSPNGTLEECQHQTKCSWLVTKAGAGTSSSHWV [chain 2 L56A]

Variants of: B2
Experiment: as above

Variant	ratio to parent
chain 2 LPSCKEDEYPVGSECCPKCSPGYRVKEACGELTGTVCEPCPPGTYIAHLNALSKCLQCQMCDPAMGLRASRNCSRTENAVCGCSPGHFCIVQDGDHCAACRAYATSSPGQRVQKGGTESQDTLCQNCPPGTFSPNGTLEECQHQTKCSWLVTKAGAGTSSSHWV [chain 2 G51A]	1.2
chain 2 LPSCKEDEYPVGSECCPKCSPGYRVKEACGELTGTVCEPCPPGTYIAHANGLSKCLQCQMCDPAMGLRASRNCSRTENAVCGCSPGHFCIVQDGDHCAACRAYATSSPGQRVQKGGTESQDTLCQNCPPGTFSPNGTLEECQHQTKCSWLVTKAGAGTSSSHWV [chain 2 L49A]	1.2
chain 2 LPSCKEDEYPVGSECCPKCSPGYRVKEACGELTGTVCEPCPPGTYIAHLNGLSKCLQCQMCDPAMGLRASRNCSRTANAVCGCSPGHFCIVQDGDHCAACRAYATSSPGQRVQKGGTESQDTLCQNCPPGTFSPNGTLEECQHQTKCSWLVTKAGAGTSSSHWV [chain 2 E77A]	1

Second part, the variant after the results:

ratio to parent	Variant
0.7	chain 2 LPSCKEDEYPVGSECCPKCSPGYRVKEACGELTGTVCEPCPPGTYIAHLAGLSKCLQCQMCDPAMGLRASRNCSRTENAVCGCSPGHFCIVQDGDHCAACRAYATSSPGQRVQKGGTESQDTLCQNCPPGTFSPNGTLEECQHQTKCSWLVTKAGAGTSSSHWV [chain 2 N50A]
0.9	chain 2 LPSCKEDEYPVGSECCPKCSPGYRVKEACGELTGTVCEPCPPGTYIAHLNGASKCLQCQMCDPAMGLRASRNCSRTENAVCGCSPGHFCIVQDGDHCAACRAYATSSPGQRVQKGGTESQDTLCQNCPPGTFSPNGTLEECQHQTKCSWLVTKAGAGTSSSHWV [chain 2 L52A]
1.8	chain 2 LPSCKEDEYPVGSECCPKCSPGYRVKEACGELTGTVCEPCPPGTYIAHLNGLSKCAQCQMCDPAMGLRASRNCSRTENAVCGCSPGHFCIVQDGDHCAACRAYATSSPGQRVQKGGTESQDTLCQNCPPGTFSPNGTLEECQHQTKCSWLVTKAGAGTSSSHWV [chain 2 L56A]
